According to patent US6887705B1, “Tyrosine phosphorylated cleavage furrow-associated proteins (PSTPIPs)” (Genentech, Inc., priority 1997, dated 2005):

T1: double mutant of PTP HSCF with both R444 and W450 mutated to alanine, HA tagged (UniProt Q61152 1-453)
T1 construct: range 1-453; also called R+W; R444+W450
T1 sequence (looked up): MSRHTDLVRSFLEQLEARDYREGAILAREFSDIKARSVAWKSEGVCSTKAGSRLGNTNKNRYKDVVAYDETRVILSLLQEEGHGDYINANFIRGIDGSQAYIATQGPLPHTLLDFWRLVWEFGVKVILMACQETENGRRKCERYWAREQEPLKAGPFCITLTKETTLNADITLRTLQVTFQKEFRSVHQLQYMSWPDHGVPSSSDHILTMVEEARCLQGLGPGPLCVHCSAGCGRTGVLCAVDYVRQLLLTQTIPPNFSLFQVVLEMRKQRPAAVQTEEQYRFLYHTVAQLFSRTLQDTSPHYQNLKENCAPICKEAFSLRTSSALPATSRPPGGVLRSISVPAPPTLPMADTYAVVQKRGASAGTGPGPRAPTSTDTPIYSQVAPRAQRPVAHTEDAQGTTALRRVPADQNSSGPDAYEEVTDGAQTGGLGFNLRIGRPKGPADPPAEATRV

T2: PST PIP missing 50 amino acids from the N-terminus (delta 50), C-terminal FLAG (murine, UniProt P97814 51-415)
T2 construct: The 5' primer (N-coil.2, Glu51) carries ATGATG before the first PSTPIP codon
T2 sequence: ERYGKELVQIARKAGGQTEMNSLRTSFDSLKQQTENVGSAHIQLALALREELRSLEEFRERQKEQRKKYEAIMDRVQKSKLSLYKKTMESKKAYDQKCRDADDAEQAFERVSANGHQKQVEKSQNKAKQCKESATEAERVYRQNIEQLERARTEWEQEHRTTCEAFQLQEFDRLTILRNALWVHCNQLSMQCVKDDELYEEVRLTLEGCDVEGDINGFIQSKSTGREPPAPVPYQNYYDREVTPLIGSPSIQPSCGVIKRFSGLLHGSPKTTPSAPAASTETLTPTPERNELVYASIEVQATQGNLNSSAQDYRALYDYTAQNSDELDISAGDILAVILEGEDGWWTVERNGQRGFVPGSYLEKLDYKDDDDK

T3: PST PIP missing 75 amino acids from the N-terminus (delta 75), C-terminal FLAG (murine, UniProt P97814 76-415)
T3 construct: The 5' primer (N-coil.3, Ser76) carries ATGATG before the first PSTPIP codon
T3 sequence: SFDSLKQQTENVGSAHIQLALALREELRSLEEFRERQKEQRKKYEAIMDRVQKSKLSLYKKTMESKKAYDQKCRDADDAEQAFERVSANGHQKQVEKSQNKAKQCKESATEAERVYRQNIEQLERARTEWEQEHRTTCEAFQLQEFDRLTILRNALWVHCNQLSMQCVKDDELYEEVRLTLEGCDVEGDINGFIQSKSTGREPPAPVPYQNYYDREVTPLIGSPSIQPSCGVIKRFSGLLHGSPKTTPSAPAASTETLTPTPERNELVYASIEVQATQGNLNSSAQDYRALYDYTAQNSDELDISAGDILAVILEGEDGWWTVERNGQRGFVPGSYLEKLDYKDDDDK

T4: W232A mutant of PST PIP, C-terminal FLAG (murine, UniProt P97814 1-415)
T4 construct: In vitro translated or expressed in COS cells; also called W232A PST PIP; PST PIP with an alanine replacement mutation at tryptophan232
T4 sequence: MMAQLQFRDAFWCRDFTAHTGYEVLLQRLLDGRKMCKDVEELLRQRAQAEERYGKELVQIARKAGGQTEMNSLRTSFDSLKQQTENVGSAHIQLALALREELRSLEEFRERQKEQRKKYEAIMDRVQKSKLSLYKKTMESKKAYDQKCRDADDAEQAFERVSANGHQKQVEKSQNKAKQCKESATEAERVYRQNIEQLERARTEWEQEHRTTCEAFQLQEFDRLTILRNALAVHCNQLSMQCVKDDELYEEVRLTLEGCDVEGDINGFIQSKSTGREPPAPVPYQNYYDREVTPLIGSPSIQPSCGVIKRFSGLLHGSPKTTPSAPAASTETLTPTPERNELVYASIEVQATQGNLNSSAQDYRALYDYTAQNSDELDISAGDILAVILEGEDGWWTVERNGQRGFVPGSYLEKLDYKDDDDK


Columns and labels:
[1] = biological target: T1, double mutant of PTP HSCF with both …; experiment: anti-HA immunoprecipitation from co-transfected COS cells, blot with anti-PST PIP
Description: Multiple bands precipitated with the GST PST PIP fusion protein are apparently C-terminal proteolyzed products of the PTP. Also shown are GST PST PIP precipitations (10 μg/ml) performed on a double mutant of PTP HSCF (R+W) with both residues $R444$ and $W450$ mutated to alanine (bottom panel FIG. 14 A/2). B. COS cells were co-transfected with a 10:1 ratio of plasmids encoding hemagglutinin (HA) tagged PTP HSCF with the illustrated alanine substitutions or a mutant of PTP HSCF deleted for the C-terminal 24 amino acids (PTP $HSCFD24$) and wild type PST PIP with a C-terminal FLAG epitope tag, respectively. Transfected cell lysates were immunoprecipitated with anti-HA monoclonal antibodies and the precipitates were blotted with anti-PST PIP polyclonal antibody to detect the relative amounts of PST PIP complexed with either wild type or different mutant forms of PTP HSCF. […] Equal expression of PSTPIP was determined by immunoprecipitating lysates with anti-FLAG monoclonal antibody and blotting with anti-PST PIP polyclonal antibody.
In vitro binding analyses between various PTP HSCF and PST PIP constructs were performed as previously described (Spencer et al, (1997), supra). […] Samples were than reacted with GST fusion proteins at various concentrations, and the bound proteins were centrifuged using glutathione-sepharose beads and analyzed on SDS polyacrylamide gels. […]

[2] = biological target: T2, PST PIP missing 50 amino acids from the …; experiment: GST-PTP HSCF pulldown of in vitro translated PST PIP deletion mutant
Description: (§1) FIG. 9. N Terminal Truncations Result in a Loss of PST PIP Binding to PTP HSCF. Full length PST PIP (Spencer et al., *J. Cell. Biol.*, 138(4):845–860 (1997)) and forms missing 25 (delta 25), 50 (delta 50) and 75 (delta 75) amino acids from the N-terminus were transcribed and translated in vitro. The upper panel illustrates immunoprecipitation of the proteins with an antibody directed against a PST PIP C-terminal FLAG epitope. The lower panel illustrates the same proteins precipitated with a GST fusion protein containing the C-terminal 149 amino acids of PTP HSCF (Cheng et al., *Oncogene* 13:2275–2279 (1996)) including the C-terminal proline rich binding site.
(§2) In vitro binding analyses between various PTP HSCF and PST PIP constructs were performed as previously described (Spencer et al, (1997), supra). Briefly, plasmids were transcribed and translated in vitro using the TnT Rabbit Reticulocyte Lysate System (Promega). Samples were diluted in 50 mM HEPES, pH 7.2, 1% triton X-100, 10% glycerol, 100 mM NaCl, and 2 µg/ml each of leupeptin, pepstatin, aprotinin and PMSF (lysis buffer). Samples were than reacted with GST fusion proteins at various concentrations, and the bound proteins were centrifuged using glutathione-sepharose beads and analyzed on SDS polyacrylamide gels. […]

[3] = biological target: T3, PST PIP missing 75 amino acids from the …; experiment: as above
Description: as §1, §2

[4] = biological target: T4, W232A mutant of PST PIP, C-terminal FLAG; experiment: GST-PTP HSCF pulldown of in vitro translated PST PIP mutant
Description: as §2, with “gels. C-terminally-derived peptide inhibition studies were performed by incubating the GST fusion protein binding reactions in the presence of 10 µg/ml of the indicated peptides. Peptides were produced by FMOC-protected amino acids as previously described (Spencer et al, (1997), supra). In vivo interactions between various forms of PTP HSCF and PST PIP were also performed as previously described (Spencer et al, (1997), supra). Briefly, COS cells were transfected with various constructs, and after 48 hours, lysates were prepared and immunoprecipitated with antibodies to either the FLAG epitope contained at the C-terminus of PST PIP or an HA epitope contained at the N-terminus of PTP HSCF.” for “gels.”

Row | Binder | binding result [1] | binding result [2] | binding result [3] | binding result [4]
1 | full-length PSTPIP tagged with the FLAG epitope at the C-terminus (other, In vitro transcribed/translated in rabbit reticulocyte lysate, or expressed in COS cells) MMAQLQFRDAFWCRDFTAHTGYEVLLQRLLDGRKMCKDVEELLRQRAQAEERYGKELVQIARKAGGQTEMNSLRTSFDSLKQQTENVGSAHIQLALALREELRSLEEFRERQKEQRKKYEAIMDRVQKSKLSLYKKTMESKKAYDQKCRDADDAEQAFERVSANGHQKQVEKSQNKAKQCKESATEAERVYRQNIEQLERARTEWEQEHRTTCEAFQLQEFDRLTILRNALWVHCNQLSMQCVKDDELYEEVRLTLEGCDVEGDINGFIQSKSTGREPPAPVPYQNYYDREVTPLIGSPSIQPSCGVIKRFSGLLHGSPKTTPSAPAASTETLTPTPERNELVYASIEVQATQGNLNSSAQDYRALYDYTAQNSDELDISAGDILAVILEGEDGWWTVERNGQRGFVPGSYLEKLDYKDDDDK | no binding | – | – | –
2 | GST-PST-rich+CTH PTP HSCF (GST fusion of PTP HSCF amino acids 304-453) (other, UniProt Q61152 304-453, looked up, range 304-453; the methods give amino acids 304-453; also called GST-PTP HSCF; GST PTP HSCF; not shown: glutathione S-transferase encoded by pGEX-4T-2 (Pharmacia)) QNLKENCAPICKEAFSLRTSSALPATSRPPGGVLRSISVPAPPTLPMADTYAVVQKRGASAGTGPGPRAPTSTDTPIYSQVAPRAQRPVAHTEDAQGTTALRRVPADQNSSGPDAYEEVTDGAQTGGLGFNLRIGRPKGPRDPPAEWTRV | – | no binding | no binding | no binding
